Data reported in patent US20240035010, “COMPOSITIONS COMPRISING A VARIANT POLYPEPTIDE AND USES THEREOF” (Arbor Biotechnologies, Inc., published 2024).
Positions count from the first letter of the chain named.

Assays:
[1] = target: T1, variant nuclease T338G combination (P14R, D32R, I61R, E311R, T338G); assay: cell_activity; PAM 5'-TTTA-3'; settings: tags: pcDNA3.1 expression
T1 chain: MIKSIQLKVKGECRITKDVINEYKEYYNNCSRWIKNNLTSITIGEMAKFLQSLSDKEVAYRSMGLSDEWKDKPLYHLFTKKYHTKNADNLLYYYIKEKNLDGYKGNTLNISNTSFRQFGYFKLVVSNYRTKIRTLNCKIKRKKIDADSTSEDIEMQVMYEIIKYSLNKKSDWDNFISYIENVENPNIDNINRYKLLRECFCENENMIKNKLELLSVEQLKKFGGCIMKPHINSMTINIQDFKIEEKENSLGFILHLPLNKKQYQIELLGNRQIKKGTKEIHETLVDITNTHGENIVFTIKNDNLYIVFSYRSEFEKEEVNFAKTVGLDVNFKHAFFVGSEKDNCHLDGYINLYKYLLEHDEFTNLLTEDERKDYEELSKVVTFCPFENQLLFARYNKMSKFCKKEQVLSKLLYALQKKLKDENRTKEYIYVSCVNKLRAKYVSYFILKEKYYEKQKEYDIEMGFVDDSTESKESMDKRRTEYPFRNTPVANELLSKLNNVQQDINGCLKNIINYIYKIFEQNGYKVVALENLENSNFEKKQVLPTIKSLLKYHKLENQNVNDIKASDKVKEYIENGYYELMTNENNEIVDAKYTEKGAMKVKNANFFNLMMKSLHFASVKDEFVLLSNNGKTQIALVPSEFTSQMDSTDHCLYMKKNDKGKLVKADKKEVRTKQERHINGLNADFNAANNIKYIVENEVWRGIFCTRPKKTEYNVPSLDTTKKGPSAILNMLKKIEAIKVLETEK
Method in brief: (§1)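 HEK293T cells were lipofected with nuclease plasmid (pcDNA3.1 backbone) plus RNA guide plasmid, with guide omitted in negative controls. After ~72 h cells were lysed in QuickExtract and % indels were derived from NGS reads, averaged over two bioreplicates and two technical replicates.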

[2] = target: T2, variant nuclease D55G/E736G combination (P14R, D32R, I61R, E311R, D55G, E736G); assay: cell_activity; PAM 5'-TTTA-3'; settings: tags: pcDNA3.1 expression
T2 chain: T1 chain with D55G, G338T, E736G
Method in brief: as §1

B1: VEGFA crRNA ; VEGFA target (ssRNA ; dsDNA)
RNA: CUUGUUGUAUAUGUCCUUUUAUAGGUAUUAAACAACUCCAGACCACCAAUGGGCAC
DNA 1: TCCAGACCACCAATGGGCAC
DNA 2: GTGCCCATTGGTGGTCTGGA
With B1 the indel activity [1] was 2.72 fold of WT and the indel activity [2] was 3.06 fold of WT.
